Assay results taken from US20220064329A1 (Novo Nordisk, published 2022).

T1: recombinant human activated Factor VII (FVIIa) (human, UniProt P08709 61-212; P08709 213-466, ten glutamate residues of the Gla domain may be gamma-carboxylated)
T1 construct: chains tethered by a disulfide bond; also called Factor VIIa; rFVIIa
T1 sequence 1: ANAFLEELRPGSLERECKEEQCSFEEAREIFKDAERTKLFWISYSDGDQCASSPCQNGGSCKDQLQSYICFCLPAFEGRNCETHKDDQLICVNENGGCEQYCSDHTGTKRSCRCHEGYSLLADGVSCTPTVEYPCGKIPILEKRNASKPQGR
T1 sequence 2: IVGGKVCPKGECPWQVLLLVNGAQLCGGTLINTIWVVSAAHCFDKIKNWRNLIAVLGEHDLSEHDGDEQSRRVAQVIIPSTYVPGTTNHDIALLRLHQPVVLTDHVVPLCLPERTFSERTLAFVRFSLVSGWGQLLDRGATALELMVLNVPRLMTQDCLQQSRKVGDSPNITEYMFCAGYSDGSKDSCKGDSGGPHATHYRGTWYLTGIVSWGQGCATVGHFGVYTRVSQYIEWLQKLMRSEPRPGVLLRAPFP


Legend:
[1] = target: T1, recombinant human activated Factor VII …; test: SPR (Biacore)
[2] = target: T1, recombinant human activated Factor VII …; test: cell-based or functional assay

Binder	Kd [1]	AT inhibition (kinh %) [2]	TGT activity (%% FVIIa) [2]
mAb0138(OA) (antibody, human IgG4 S228P, kappa, one-armed (OA) antibody, constant domain type E) heavy: not shown light: EIVLTQSPATLSLSPGERATLSCRASQGISDYLHWYQQKPGEAPRLLIKYTSQPATGIPARFSGSGSGTDFTLTISSLEPEDVGVYYCQNGHSFPLTFGAGTKLELKRTVAAPSVFIFPPSDEQLKSGTASVVCLLNNFYPREAKVQWKVDNALQSGNSQESVTEQDSKDSTYSLSSTLTLSKADYEKHKVYACEVTHQGLSSPVTKSFNRGEC VESKYGPPCPPCPAPEFLGGPSVFLFPPKPKDTLMISRTPEVTCVVVDVSQEDPEVQFNWYVDGVEVHNAKTKPREEQFNSTYRVVSVLTVLHQDWLNGKEYKCKVSNKGLPSSIEKTISKAKGQPREPQVYTLPPSQEEMTKNQVSLTCLVKGFYPSDIAVEWESNGQPENNYKTTPPVLDSDGSFLLYSKLTVDKSRWQEGNVFSCSVMHEALHNHYTQKSLSLSLGK	0.13 nM	105%	99%
mAb0709(OA) (antibody, human IgG4 S228P, kappa, one-armed (OA) antibody, constant domain type F (knob-in-hole)) heavy: QVQLQESGPGLVKPSQTLSLTCTVSGYSISSDSAWSWIRQPPGKGLEWIGYIQYSGSTNYNPSLKSRVTISRDTSKNQFSLKLSSVTAADTAVYYCARSVNYYGNSFAVGPWGQGTLVTVSSASTKGPSVFPLAPCSRSTSESTAALGCLVKDYFPEPVTVSWNSGALTSGVHTFPAVLQSSGLYSLSSVVTVPSSSLGTKTYTCNVDHKPSNTKVDKRVESKYGPPCPPCPAPEFLGGPSVFLFPPKPKDTLMISRTPEVTCVVVDVSQEDPEVQFNWYVDGVEVHNAKTKPREEQFNSTYRVVSVLTVLHQDWLNGKEYKCKVSNKGLPSSIEKTISKAKGQPREPQVYTLPPSQEEMTKNQVSLSCAVKGFYPSDIAVEWESNGQPENNYKTTPPVLDSDGSFFLVSRLTVDKSRWQEGNVFSCSVMHEALHNHYTQKSLSLSLGK light: EIVLTQSPATLSLSPGERATLSCRASQGISDYLHWYQQKPGEAPRLLIKYTSQPATGIPARFSGSGSGTDFTLTISSLEPEDFAVYYCQNGHSFPLTFGQGTKLEIKRTVAAPSVFIFPPSDEQLKSGTASVVCLLNNFYPREAKVQWKVDNALQSGNSQESVTEQDSKDSTYSLSSTLTLSKADYEKHKVYACEVTHQGLSSPVTKSFNRGEC not shown	0.104 nM	137%	103%
mAb0141(OA) (antibody, human IgG4 S228P, kappa, one-armed (OA) antibody, constant domain type E) heavy: not shown light: EIVLTQSPATLSLSPGERATLSCRASQGISDYLHWYQQKPGEAPRLLIKYTSQPATGIPARFSGSGSGTDFTLTISSLEPEDVGVYYCQNGHSFPLTFGAGTKLELKRTVAAPSVFIFPPSDEQLKSGTASVVCLLNNFYPREAKVQWKVDNALQSGNSQESVTEQDSKDSTYSLSSTLTLSKADYEKHKVYACEVTHQGLSSPVTKSFNRGEC VESKYGPPCPPCPAPEFLGGPSVFLFPPKPKDTLMISRTPEVTCVVVDVSQEDPEVQFNWYVDGVEVHNAKTKPREEQFNSTYRVVSVLTVLHQDWLNGKEYKCKVSNKGLPSSIEKTISKAKGQPREPQVYTLPPSQEEMTKNQVSLTCLVKGFYPSDIAVEWESNGQPENNYKTTPPVLDSDGSFLLYSKLTVDKSRWQEGNVFSCSVMHEALHNHYTQKSLSLSLGK	0.078 nM	109%	103%
mAb0143(OA) (antibody, human IgG4 S228P, kappa, one-armed (OA) antibody, constant domain type E) heavy: not shown light: EIVLTQSPATLSLSPGERATLSCRASQGISDYLHWYQQKPGEAPRLLIKYTSQPATGIPARFSGSGSGTDFTLTISSLEPEDFGVYYCQNGHSFPLTFGAGTKLELKRTVAAPSVFIFPPSDEQLKSGTASVVCLLNNFYPREAKVQWKVDNALQSGNSQESVTEQDSKDSTYSLSSTLTLSKADYEKHKVYACEVTHQGLSSPVTKSFNRGEC VESKYGPPCPPCPAPEFLGGPSVFLFPPKPKDTLMISRTPEVTCVVVDVSQEDPEVQFNWYVDGVEVHNAKTKPREEQFNSTYRVVSVLTVLHQDWLNGKEYKCKVSNKGLPSSIEKTISKAKGQPREPQVYTLPPSQEEMTKNQVSLTCLVKGFYPSDIAVEWESNGQPENNYKTTPPVLDSDGSFLLYSKLTVDKSRWQEGNVFSCSVMHEALHNHYTQKSLSLSLGK	0.079 nM	109%	107%
mAb0099(OA) (antibody, human IgG4 S228P, kappa) heavy: DVQLQESGPGLVEPSQSLSLTCTVTGYSITSDSAWSWIRQFPGNKLEWMGYIQYSGSTNYNPSLKSRISVTRDTSKNQFFLRLSSVTAEDTATYYCTRSVNYYGNSFAVGYWGQGTSVTVSSASTKGPSVFPLAPCSRSTSESTAALGCLVKDYFPEPVTVSWNSGALTSGVHTFPAVLQSSGLYSLSSVVTVPSSSLGTKTYTCNVDHKPSNTKVDKRVESKYGPPCPPCPAPEFLGGPSVFLFPPKPKDTLMISRTPEVTCVVVDVSQEDPEVQFNWYVDGVEVHNAKTKPREEQFNSTYRVVSVLTVLHQDWLNGKEYKCKVSNKGLPSSIEKTISKAKGQPREPQVYTLPPSQEEMTKNQVSLSCAVKGFYPSDIAVEWESNGQPENNYKTTPPVLDSDGSFFLVSRLTVDKSRWQEGNVFSCSVMHEALHNHYTQKSLSLSLGK light: DIVMTQSPATLSVTAGDRVSLSCRASQGISDYLHWYQQKSHESPRLLIKYTSQPVSGIPSRFSGSGSGSEFTLSINSVEPEDVGVYYCQNGHSFPLTFGAGTKLELKRTVAAPSVFIFPPSDEQLKSGTASVVCLLNNFYPREAKVQWKVDNALQSGNSQESVTEQDSKDSTYSLSSTLTLSKADYEKHKVYACEVTHQGLSSPVTKSFNRGEC not shown	0.12 nM	117%	98%

Continued by falling Kd [1], values first:

Kd [1]	AT inhibition (kinh %) [2]	TGT activity (%% FVIIa) [2]	Binder
1 nM	114%	106%	mAb0142(OA) (antibody, human IgG4 S228P, kappa, one-armed (OA) antibody, constant domain type E) heavy: not shown light: EIVLTQSPATLSLSPGERATLSCRASQGISSYLHWYQQKPGEAPRLLIKYTSQPATGIPARFSGSGSGTDFTLTISSLEPEDVGVYYCQNGHSFPLTFGAGTKLELKRTVAAPSVFIFPPSDEQLKSGTASVVCLLNNFYPREAKVQWKVDNALQSGNSQESVTEQDSKDSTYSLSSTLTLSKADYEKHKVYACEVTHQGLSSPVTKSFNRGEC VESKYGPPCPPCPAPEFLGGPSVFLFPPKPKDTLMISRTPEVTCVVVDVSQEDPEVQFNWYVDGVEVHNAKTKPREEQFNSTYRVVSVLTVLHQDWLNGKEYKCKVSNKGLPSSIEKTISKAKGQPREPQVYTLPPSQEEMTKNQVSLTCLVKGFYPSDIAVEWESNGQPENNYKTTPPVLDSDGSFLLYSKLTVDKSRWQEGNVFSCSVMHEALHNHYTQKSLSLSLGK
0.083 nM	106%	100%	mAb0140(OA) (antibody, human IgG4 S228P, kappa, one-armed (OA) antibody, constant domain type E) heavy: not shown light: EIVLTQSPATLSLSPGERATLSCRASQGISDYLHWYQQKPGEAPRLLIKYTSQPATGIPARFSGSGSGTDFTLTISSLEPEDVGVYYCQNGHSFPLTFGAGTKLELKRTVAAPSVFIFPPSDEQLKSGTASVVCLLNNFYPREAKVQWKVDNALQSGNSQESVTEQDSKDSTYSLSSTLTLSKADYEKHKVYACEVTHQGLSSPVTKSFNRGEC VESKYGPPCPPCPAPEFLGGPSVFLFPPKPKDTLMISRTPEVTCVVVDVSQEDPEVQFNWYVDGVEVHNAKTKPREEQFNSTYRVVSVLTVLHQDWLNGKEYKCKVSNKGLPSSIEKTISKAKGQPREPQVYTLPPSQEEMTKNQVSLTCLVKGFYPSDIAVEWESNGQPENNYKTTPPVLDSDGSFLLYSKLTVDKSRWQEGNVFSCSVMHEALHNHYTQKSLSLSLGK
0.0542 nM	132%	101%	mAb0706(OA) (antibody, human IgG4 S228P, kappa, one-armed (OA) antibody, constant domain type F (knob-in-hole)) heavy: QVQLQESGPGLVEPSQTLSLTCTVSGYSISSDSAWSWIRQPPGKGLEWIGYIQYSGSTNYNPSLKSRVTISRDTSKNQFSLKLSSVTAADTAVYYCARSVNYYGNSFAVGYWGQGTLVTVSSASTKGPSVFPLAPCSRSTSESTAALGCLVKDYFPEPVTVSWNSGALTSGVHTFPAVLQSSGLYSLSSVVTVPSSSLGTKTYTCNVDHKPSNTKVDKRVESKYGPPCPPCPAPEFLGGPSVFLFPPKPKDTLMISRTPEVTCVVVDVSQEDPEVQFNWYVDGVEVHNAKTKPREEQFNSTYRVVSVLTVLHQDWLNGKEYKCKVSNKGLPSSIEKTISKAKGQPREPQVYTLPPSQEEMTKNQVSLSCAVKGFYPSDIAVEWESNGQPENNYKTTPPVLDSDGSFFLVSRLTVDKSRWQEGNVFSCSVMHEALHNHYTQKSLSLSLGK light: EIVLTQSPATLSLSPGERATLSCRASQGISDYLHWYQQKPGQAPRLLIKYTSQPATGIPARFSGSGSGTDFTLTISSLEPEDFAVYYCQNGHSFPLTFGQGTKLEIKRTVAAPSVFIFPPSDEQLKSGTASVVCLLNNFYPREAKVQWKVDNALQSGNSQESVTEQDSKDSTYSLSSTLTLSKADYEKHKVYACEVTHQGLSSPVTKSFNRGEC not shown
0.0505 nM	129%	100%	mAb0705(OA) (antibody, human IgG4 S228P, kappa, one-armed (OA) antibody, constant domain type F (knob-in-hole); also called monovalent humanized 11F2) heavy: QVQLQESGPGLVKPSQTLSLTCTVSGYSISSDSAWSWIRQPPGKGLEWIGYIQYSGSTNYNPSLKSRVTISRDTSKNQFSLKLSSVTAADTAVYYCARSVNYYGNSFAVGYWGQGTLVTVSSASTKGPSVFPLAPCSRSTSESTAALGCLVKDYFPEPVTVSWNSGALTSGVHTFPAVLQSSGLYSLSSVVTVPSSSLGTKTYTCNVDHKPSNTKVDKRVESKYGPPCPPCPAPEFLGGPSVFLFPPKPKDTLMISRTPEVTCVVVDVSQEDPEVQFNWYVDGVEVHNAKTKPREEQFNSTYRVVSVLTVLHQDWLNGKEYKCKVSNKGLPSSIEKTISKAKGQPREPQVYTLPPSQEEMTKNQVSLSCAVKGFYPSDIAVEWESNGQPENNYKTTPPVLDSDGSFFLVSRLTVDKSRWQEGNVFSCSVMHEALHNHYTQKSLSLSLGK light: EIVLTQSPATLSLSPGERATLSCRASQGISDYLHWYQQKPGEAPRLLIKYTSQPATGIPARFSGSGSGTDFTLTISSLEPEDFAVYYCQNGHSFPLTFGQGTKLEIKRTVAAPSVFIFPPSDEQLKSGTASVVCLLNNFYPREAKVQWKVDNALQSGNSQESVTEQDSKDSTYSLSSTLTLSKADYEKHKVYACEVTHQGLSSPVTKSFNRGEC not shown
